B6: NCoRNID (nuclear receptor interaction domain of the Nuclear receptor CoRepressor) (domain or fragment, UniProt Q60974 2059-2325, looked up)
chain: QVPRTHRLITLADHICQIITQDFARNQVPSQASTSTFQTSPSALSSTPVRTKTSSRYSPESQSQTVLHPRPGPRVSPENLVDKSRGSRPGKSPERSHIPSEPYEPISPPQGPAVHEKQDSMLLLSQRGVDPAEQRSDSRSPGSISYLPSFFTKLESTSPMVKSKKQEIFRKLNSSGGGDSDMAAAQPGTEIFNLPAVTTSGAVSSRSHSFADPASNLGLEDIIRKALMGSFDDKVEDHGVVMSHPVGIMPGSASTSVVTSSEARRDE
notes: Unlabelled form used for SEC-MALS, SEC-SAXS and HDX-MS; also called NCOR1

The target of series [1] is RARalpha dAB dF;RXRalpha dAB;NCoR NID (Mus musculus / Homo sapiens (Methods …, UniProt P11416;P19793;Q60974 82-421;126-462;2059-2325, ||)). The series is described as follows: SEC-SAXS, HDX-MS; BMS493; Fluorescence anisotropy: 20 mM Tris-HCl pH 7.5, 75 mM NaCl, 75 mM KCl, 2 mM CHAPS, 4 mM MgCl2, 2 mM TCEP, 10% glycerol, 0.5 nM Cy5-DNA, 4 uM ligands, 294 K. The settings on record: protein: recombinant;recombinant;recombinant, tags: N-terminal His6 (pET15b), copies: 1;1;1.

Series [2] addresses T1, RARalpha dAB dF;RXRalpha dAB (Mus musculus / Homo sapiens (Methods …, UniProt P11416;P19793 82-421;126-462, |)). Kind of series: fluorescence anisotropy; AM580 + CD3254; Fluorescence anisotropy: 20 mM Tris-HCl pH 7.5, 75 mM NaCl, 75 mM KCl, 2 mM CHAPS, 4 mM MgCl2, 2 mM TCEP, 10% glycerol, 0.5 nM Cy5-DNA, 4 uM ligands, 294 K. The settings on record: protein: recombinant;recombinant, tags: N-terminal His6 (pET15b), copies: 1;1, label: Cy5 on forward strand.

The target in series [3] is T1, RARalpha dAB dF;RXRalpha dAB. Kind of series: fluorescence anisotropy; apo; Fluorescence anisotropy: 20 mM Tris-HCl pH 7.5, 75 mM NaCl, 75 mM KCl, 2 mM CHAPS, 4 mM MgCl2, 2 mM TCEP, 10% glycerol, 0.5 nM Cy5-DNA, 4 uM ligands, 294 K. The conditions noted are these: protein: recombinant;recombinant, tags: N-terminal His6 (pET15b), copies: 1;1, label: Cy5 on forward strand. In general terms: Polarisation of emitted light reports the rotation of a fluorescent probe.

For series [4] the target is unchanged. Kind of series: fluorescence anisotropy; BMS493; Fluorescence anisotropy: 20 mM Tris-HCl pH 7.5, 75 mM NaCl, 75 mM KCl, 2 mM CHAPS, 4 mM MgCl2, 2 mM TCEP, 10% glycerol, 0.5 nM Cy5-DNA, 4 uM ligands, 294 K. The settings on record: protein: recombinant;recombinant, tags: N-terminal His6 (pET15b), copies: 1;1, label: Cy5 on forward strand.
The target in series [5] is T2, HsRXRAΔAB (retinoid X receptor alpha without the A/B domain) (human (printed as HsRXRAΔAB; the same …, UniProt P19793 126-462).
T2 construct: A/B domain removed; In the rows of this molecule it stood as a subunit of the RAR/RXR heterodimer; Vector pET28b; also called RXRα; MmRXRAΔAB; source: E. coli BL21 (DE3), purified (HisTrap HP, thrombin cleavage, SEC Superdex 75); not shown: His6, N-terminal, cleaved
T2 sequence (looked up): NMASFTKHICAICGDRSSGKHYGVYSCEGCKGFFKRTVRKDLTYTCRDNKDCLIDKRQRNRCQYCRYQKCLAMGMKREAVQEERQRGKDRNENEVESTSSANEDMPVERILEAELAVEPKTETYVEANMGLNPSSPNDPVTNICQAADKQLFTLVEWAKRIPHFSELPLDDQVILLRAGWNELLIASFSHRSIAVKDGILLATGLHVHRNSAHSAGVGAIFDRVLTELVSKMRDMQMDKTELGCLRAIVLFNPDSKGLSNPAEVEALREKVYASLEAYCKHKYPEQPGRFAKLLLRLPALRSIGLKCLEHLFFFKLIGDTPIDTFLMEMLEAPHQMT
The series is described as follows: HDX-MS; RAR/RXR and RR–DNA (DR0, DR1, DR5, IR0) with and without NCoRNID, with BMS493; 4°C, 20 μM complex diluted 10-fold into deuterated buffer pD 7.5; 4 s to 10 800 s; RAR and RXR read as subunits of the heterodimer. The settings on record: both partners purified.

In series [6] the target is Alexa488-labeled TIF-2NRID. Kind of series: fluorescence polarisation; steady-state fluorescence anisotropy; RAR/RXR without DNA titrated (from 4 μM, 2-fold dilutions) against 10 nM Alexa488-TIF-2NRID with 12 μM AM580 and CD3254; 20 mM Tris–HCl pH 7.5, 75 mM NaCl, 75 mM KCl, 2 mM CHAPS, 4 mM MgCl2, 5 mM DTT, 10% glycerol.
For series [7], the target named is NCoRNID mut1 (IR region replaced by a fully disordered segment) (UniProt Q60974). Kind of series: MST; RAR/RXR bound to DR1 DNA (RR–DR1), no ligand (apo); heterodimer titrated against labelled NCoRNID; same buffer, 22°C.
The target in series [8] is Alexa488-labeled TIF-2NRID. Kind of series: fluorescence polarisation; steady-state fluorescence anisotropy; RR–IR0 titrated against 10 nM Alexa488-TIF-2NRID with 12 μM AM580 and CD3254; same buffer.
Series [9] deals with TIF-2NRID (nuclear receptor interaction domain of the transcriptional intermediary factor 2). Kind of series: SEC; with SDS–PAGE; complexes of RR–DNA and TIF-2NRID formed in the presence of both agonists (AM580, CD3254). A general note: Size exclusion chromatography separates by hydrodynamic size, large species first.
The target in series [10] is Alexa488-labeled TIF-2NRID. Kind of series: fluorescence polarisation; steady-state fluorescence anisotropy; RR–DR1 titrated against 10 nM Alexa488-TIF-2NRID with 12 μM AM580 and CD3254; same buffer.
Series [11] addresses Alexa488-labeled TIF-2NRID. Kind of series: fluorescence polarisation; steady-state fluorescence anisotropy; RR–DR5 titrated against 10 nM Alexa488-TIF-2NRID with 12 μM AM580 and CD3254; same buffer.
The target in series [12] is Alexa488-labeled TIF-2NRID. The series is described as follows: fluorescence polarisation; steady-state fluorescence anisotropy; RR–DR0 titrated against 10 nM Alexa488-TIF-2NRID with 12 μM AM580 and CD3254; same buffer.
In series [13] the target is NCoRNID mut2 (point mutations designed to disrupt the helical folding of the IR region) (UniProt Q60974). The series is described as follows: MST; RAR/RXR bound to DR5 DNA (RR–DR5), no ligand (apo); heterodimer titrated against labelled NCoRNID; same buffer, 22°C.
Series [14] deals with B6. Kind of series: SEC-MALS; with SDS–PAGE; complexes of RR–DNA and NCoRNID formed in the presence of BMS493. The conditions noted are these: both partners purified.
For series [15], the target named is NCoRNID mut2 (point mutations designed to disrupt the helical folding of the IR region) (UniProt Q60974). The series is described as follows: MST; RR–DR5 with BMS493; heterodimer titrated against labelled NCoRNID; same buffer, 22°C.
In series [16] the target is T2, HsRXRAΔAB (retinoid X receptor alpha …). Kind of series: SEC-MALS; purified RAR/RXR heterodimer; single peak, molecular weight matching the heterodimer. The settings on record: both partners purified.
The mark [17] stands for this setting: 5' overhang 1 nt at both ends (so in the source).

B1: IR0 Trim16 (dsDNA)
DNA 1: GCAGGGTCATGACCCCGC
DNA 2: CGCGGGGTCATGACCCTG
For B1, the binding result in series [1] (setting [17]) was “binds”.

B2: DR5 Rarb2 (dsDNA)
DNA 1: AGGGTTCACCGAAAGTTCACT
DNA 2: AGTGAACTTTCGGTGAACCCT
For B2, the binding result in series [1] (blunt) was “binds”.

B3: DR1 idealized Cy5 (dsDNA)
DNA 1: CTAGGTCAAAGGTCAGC
DNA 2: GCTGACCTTTGACCTAG
Turning to B3, the figures for the dissociation constant Kd in series [2] (blunt), in [3] (blunt) and in series [4] (blunt) were 8.7 ± 2.9 nM, 6.1 ± 2.2 nM and 24.6 ± 5 nM, respectively.

B4: IR0 Trim16 Cy5 (dsDNA)
DNA 1: GCAGGGTCATGACCCCGC
DNA 2: CGCGGGGTCATGACCCTG
Consider B4, for which the equilibrium dissociation constant (Kd) in [2] (setting [17]) came to 3.8 ± 3.1 nM; in series [3] (setting [17]), 1.9 ± 1.3 nM; in series [4] (setting [17]), 29.1 ± 24.2 nM.

B5: DR1 idealized (dsDNA)
DNA 1: CTAGGTCAAAGGTCAGC
DNA 2: GCTGACCTTTGACCTAG
For the molecule B5, the binding result in series [1] (blunt) is reported as “binds”.
As for B6, the binding result in series [5] is on record as “binds”.

B7: DR5 Rarb2 Cy5 (dsDNA)
DNA 1: AGGGTTCACCGAAAGTTCACT
DNA 2: AGTGAACTTTCGGTGAACCCT
For B7, the equilibrium dissociation constant (Kd) in series [2] (blunt) came to 2.4 ± 0.9 nM; in series [3] (blunt) it was 1.7 ± 0.8 nM; in series [4] (blunt), 15 ± 2 nM.

B8: RAR/RXR heterodimer (RARAΔABF with RXRAΔAB) (complex)
chain 1: PRIYKPCFVCQDKSSGYHYGVSACEGCKGFFRRSIQKNMVYTCHRDKNCIINKVTRNRCQYCRLQKCFDVGMSKESVRNDRNKKKKEAPKPECSESYTLTPEVGELIEKVRKAHQETFPALCQLGKYTTNNSSEQRVSLDIDLWDKFSELSTKCIIKTVEFAKQLPGFTTLTIADQITLLKAACLDILILRICTRYTPEQDTMTFSDGLTLNRTQMHNAGFGPLTDLVFAFANQLLPLEMDDAETGLLSAICLICGDRQDLEQPDKVDMLQEPLLEALKVYVRKRRPSRPHMFPKMLMKITDLRSISAKGAERVITLKMEIPGSMPPLIQEMLENSEGLD
chain 2: NMASFTKHICAICGDRSSGKHYGVYSCEGCKGFFKRTVRKDLTYTCRDNKDCLIDKRQRNRCQYCRYQKCLAMGMKREAVQEERQRGKDRNENEVESTSSANEDMPVERILEAELAVEPKTETYVEANMGLNPSSPNDPVTNICQAADKQLFTLVEWAKRIPHFSELPLDDQVILLRAGWNELLIASFSHRSIAVKDGILLATGLHVHRNSAHSAGVGAIFDRVLTELVSKMRDMQMDKTELGCLRAIVLFNPDSKGLSNPAEVEALREKVYASLEAYCKHKYPEQPGRFAKLLLRLPALRSIGLKCLEHLFFFKLIGDTPIDTFLMEMLEAPHQMT
notes: retinoic acid receptor alpha, residues 82-421 of Uniprot entry P11416; as the chain of m1; as the chain of m2; 1:1 heterodimer by SEC-MALS; this is told in the format of each assay; also called RR–DR0; source: E. coli BL21 (DE3); RAR and RXR purified separately, mixed (2-fold excess of RAR), heterodimer purified by SEC (Superdex 200); not shown: His6, N-terminal, cleaved
As to B8, the dissociation constant Kd in series [6] was determined as 126 nM; in series [7], 347 nM; in series [8], 22.7 nM; in [10], 30.1 nM; in [11], 27.7 nM; in [12], 55.1 nM. The Kd amounted to 576 nM in [13] and 538 nM in series [15]. Further, the stoichiometry N in series [9] and in series [14] was 1 each time.

B9: MmRARAΔABF (retinoic acid receptor alpha without the A/B and F domains) (domain or fragment, UniProt P11416 82-421, looked up)
chain: PRIYKPCFVCQDKSSGYHYGVSACEGCKGFFRRSIQKNMVYTCHRDKNCIINKVTRNRCQYCRLQKCFDVGMSKESVRNDRNKKKKEAPKPECSESYTLTPEVGELIEKVRKAHQETFPALCQLGKYTTNNSSEQRVSLDIDLWDKFSELSTKCIIKTVEFAKQLPGFTTLTIADQITLLKAACLDILILRICTRYTPEQDTMTFSDGLTLNRTQMHNAGFGPLTDLVFAFANQLLPLEMDDAETGLLSAICLICGDRQDLEQPDKVDMLQEPLLEALKVYVRKRRPSRPHMFPKMLMKITDLRSISAKGAERVITLKMEIPGSMPPLIQEMLENSEGLD
notes: retinoic acid receptor alpha, residues 82-421 of Uniprot entry P11416 (DBD, hinge and LBD; A/B and F domains removed); In the rows of this molecule it stood as a subunit of the RAR/RXR heterodimer; Vector pET15b; also called RARα; NR1B1; source: E. coli BL21 (DE3), purified (HisTrap HP)
B9: in series [16], the “stoichiometry N” value came to 1.

B10: DR0 Hoxb13 Cy5 (dsDNA)
DNA 1: GAAGGTCAAGGCCAAG
DNA 2: CTTGGCCTTGACCTTC
On to B10, for which the dissociation constant (Kd) in series [2] (blunt) was 24.1 ± 17.3 nM; in series [3] (blunt) it was 33.5 ± 16.4 nM; in series [4] (blunt) it was 101 ± 48.1 nM.

A word on the Kd: it is the constant that tells how readily two partners part at equilibrium. In general, stoichiometry N refers to a count of units in the complex or per binding partner.
